Assay results taken from publication PMC6441080, “Coordination of capsule assembly and cell wall biosynthesis in Staphylococcus aureus” (Nature Communications, 2019).

System: CC(=O)N[C@H]1[C@@H](OP(=O)(O)OP(=O)(O)OC[C@H]2O[C@@H](n3ccc(=O)[nH]c3=O)[C@H](O)[C@@H]2O)O[C@H](C)[C@H](O)[C@@H]1O
Experiment: purified protein
Conditions: Mg2+

Question: With “CapM (Staphylococcus aureus subsp. aureus USA300)” as the substance, how does the Km read?
Answer: 2,309 ± 311.8 µM
